Test results taken from patent publication US10428159B2, “Blocking monoclonal antibodies to AGR2 and its receptor C4.4A” (Board of Regents, The University of Texas System, priority 2014, dated 2019).

B1: rAGR2: human recombinant AGR2 protein (ab64013, AbCam) (protein)
chain: RDTTVKPGAKKDTKDSRPKLPQTLSRGWGDQLIWTQTYEEALYKSKTSNKPLMIIHHLDECPHSQALKKVFAENKEIQKLAEQFVLLNLVYETTDKHLSPDGQYVPRIMFVDPSLTVRADITGRYSNRLYAYEPADTALLLDNMKKALKLLKTEL
B2: 162-1A-1: mouse monoclonal blocking antibody against C4.4A, IgG2b/kappa, VH SEQ ID NO: 10, VL SEQ ID NO: 11 (antibody, V domains shown)
VH: MNFGLSLIFLVLILKGVQCEVMLVESGGGLVKPGGSLKLSCAASGFTFSSYTMSWVRQTPEKRLEWVASISSGGGNTYYADSVKGRFTMSRDNAKNNLYLQMSSLRSEDTALYYCARSYYYGISYDTYWGQGTLVTVSA
VL: MKLPVRLLVLMFWIPASNSDVVMTQTPLSLPVSLGDQASISCRSSQNLVHSDGNTYLHWYLQKPGQSPKLLIYKVSNRFSGVPDRFSGSGSGTDFTLKISRVEAEDLGVYFCSQSTHVPYTFGGGTKLEIK

Experiments:
[1] = test system: MiaPaCa-2 cells; experiment: Migration (Boyden's chamber) with rAGR2; assay type: cell-based; details: MiaPaCa-2, rAGR2 0-100 nM, 22 h
Experimental: (§1) FIGS. 7A-D. Extracellular rAGR2-mediated functions. (A) Pancreatic cancer cells (BxPC-3 and MiaPaCa-2) were used for these studies. Extracellular addition of rAGR2 caused a significant dose-dependent increase in proliferation (BxPC-3-3-fold increase; MiaPaCa-2-4-fold increase; p<0.05). Pancreatic cancer cells were plated (2×10^4 cells) with and without rAGR2 (0-100 nM) on a Boyden's chamber for migration studies (B) and on an invasion chamber for invasion studies (C). After 22 h, cells were fixed with methanol and stained by hematoxylin, and cells in 10 random fields at 100× magnification were photographed and counted. Extracellular addition of rAGR2 caused a significant dose-dependent increase in migration (BxPC-3-7-fold increase; MiaPaCa-2-3-fold increase) and invasion (BxPC-3-10-fold increase; MiaPaCa-2-3-fold increase). (D) For analysis of apoptosis, BxPC-3 cells were treated with and without Gem (1 μM) and AGR2 (100 nM). […] Data shown are mean±SE for 3 experiments (*p<0.05 vs. control).
(§2) Cell growth, migration, invasion and apoptosis assays. Wild-type and siRNA transfected PDAC cells were grown with rAGR2 (0-500 nM) in the presence and absence of antibodies (polyclonal commercial or newly developed mAbs) (1 μM). The medium was refreshed daily. Cell numbers were estimated after 48 h by MTS assay as described previously (Ramachandran et al., 2007). […]

[2] = test system: BxPC-3 cells; experiment: Migration (Boyden's chamber) with rAGR2; assay type: cell-based; details: BxPC-3, rAGR2 0-100 nM, 22 h
Experimental: as §1, §2

[3] = test system: BxPC-3 cells; experiment: Apoptosis assay (Gem, rAGR2); assay type: cell-based; details: BxPC-3, Gem 1 μM, AGR2 100 nM
Experimental: as §1, §2

[4] = test system: MiaPaCa-2 cells; experiment: Cell proliferation with rAGR2; assay type: cell-based; details: MiaPaCa-2, rAGR2 dose-dependent
Experimental: as §1, §2

[5] = test system: BxPC-3 cells; experiment: Cell proliferation with rAGR2; assay type: cell-based; details: BxPC-3, rAGR2 dose-dependent
Experimental: as §1, §2

[6] = test system: AsPC-1 cells; experiment: Apoptosis assay (Gem, rAGR2, antibodies); assay type: cell-based
Experimental: FIGS. 11A-D. Monoclonal antibodies developed bind respectively to AGR2 and C4.4A proteins and blocked their functions. From the endogenous lysate (SU86.86/Panc-1), AGR2 (18 kD) and C4.4A (50 kD) were identified by a panel of mAbs. […] Extra bands identified with the endogenous protein were re-confirmed with the recombinant protein. For apoptosis studies, AsPC-1 cells were treated without or with Gem (0.5 μM) and rAGR2 (100 nM) and with purified (A) AGR2 and (B) C4.4A Abs (1 μM). Commercially available Abs served as control. […] Horizontal line represents median apoptotic value. Data shown are mean±SE for 3 experiments (*p<0.05). (C,D) Binding assays were conducted with purified (C) AGR2 and (D) C4.4A Abs as selected from the apoptosis assay as having high blocking efficiency. ELISA assays were conducted by coating antigenic peptide (0.5 μg) and probed with respective purified Abs. Data shown are mean±SE for 3 experiments (*p <0.05). Based on high specificity and binding, clone 28B for AGR2 and 1A for C4.4A were selected. Purified Abs were also run on 4-20% gradient gel to check for the presence of heavy (50 kD) and light chains (25 kD).
Cell growth, migration, invasion and apoptosis assays. Wild-type and siRNA transfected PDAC cells were grown with rAGR2 (0-500 nM) in the presence and absence of antibodies (polyclonal commercial or newly developed mAbs) (1 μM). The medium was refreshed daily. […]

[7] = test system: AsPC-1 cells; experiment: Invasion assay with rAGR2; assay type: cell-based; details: AsPC-1, rAGR2 0-500 nM
Experimental: (§3) Cell growth, migration, invasion and apoptosis assays. Wild-type and siRNA transfected PDAC cells were grown with rAGR2 (0-500 nM) in the presence and absence of antibodies (polyclonal commercial or newly developed mAbs) (1 μM). The medium was refreshed daily. Cell numbers were estimated after 48 h by MTS assay as described previously (Ramachandran et al., 2007). In order to avoid the differences in basal values for each cell line, the data are presented as the percent of viable cells compared to the appropriate controls. Migration and invasion assays were conducted at 24 h as described previously (Ramachandran et al., 2007). Apoptosis assays were conducted 72 h after adding Gemcitabine (Gem) to Gem-sensitive BxPC-3 cells (1 μM) and Gem-resistant AsPC-1 cells (5 μM) (Arumugam et al., 2009) as described previously (Ramachandran et al., 2008). Because siRNA transfection itself induced basal apoptosis, cells transfected with siRNAs were treated with a lower concentration of Gem (BxPC3: 0.5 μM; AsPC-1: 1 μM).

[8] = test system: AsPC-1 cells; experiment: Cell proliferation (MTS assay) with rAGR2; assay type: cell-based; details: AsPC-1, rAGR2 0-500 nM, concentration-dependent
Experimental: as §3

[9] = test system: MiaPaCa-2 cells; experiment: Invasion chamber assay with rAGR2; assay type: cell-based; details: MiaPaCa-2, rAGR2 0-100 nM, 22 h
Experimental: as §1, §2

[10] = test system: BxPC-3 cells; experiment: Invasion chamber assay with rAGR2; assay type: cell-based; details: BxPC-3, rAGR2 0-100 nM, 22 h
Experimental: as §1, §2

[11] = test system: AsPC-1 cells; experiment: Migration assay with rAGR2; assay type: cell-based; details: AsPC-1, rAGR2 0-500 nM
Experimental: as §3

[12] = test system: Capan-2 cells; experiment: Model 2 Capan-2 stromal model, orthotopic tumors; assay type: in vivo, athymic nude mice
Experimental: (§4) In vivo studies. In vivo experiments were conducted with athymic nude mice (B6.Cg-Foxn1^nu/J—female—age 9 weeks) (NCI, Bethesda, Md.) according to the UT MDACC regulatory standards and IUCAC committee approval. Orthotopic tumors were developed with luciferase-labeled cells (0.25×10^6). IgG (Cat #OB010701; Southern Biotech, Birmingham, Ala.) served as a control Ab.

[13] = test system: Capan-2 cells; experiment: Model 3 Capan-2 regression studies, orthotopic tumors; assay type: in vivo, athymic nude mice; details: 15 mg/kg single mAb or 7.5 mg each in combination, twice a week i.p.
Experimental: Immunohistochemical (IHC) staining. […] Results were blindly evaluated by a pathologist and expression levels were categorized as positive or negative (cytoplasmic staining of >10% or <10% of the tumor cells, respectively) and staining intensity as strong, moderate, or no staining. Apoptotic cells were detected in paraffin sections by fluorescence-labeled TUNEL staining (Promega, Cat #G3250).
as §4
Tumor growth and metastasis were measured weekly with the IVIS® live animal bioluminescence imaging system after injecting luciferin substrate (Xenogen, Alameda, Calif.). The number of mice surviving was recorded each week and shown as the percent of the original group size.

[14] = test system: PDAC cell; experiment: Blocking of basal and AGR2-stimulated PDAC cell migration by antibodies; assay type: cell-based; details: antibodies 1 μM, compared to non-specific antibody
Experimental: as §3
Blocking monoclonal antibody development. Mouse monoclonal antibodies (mAbs) against AGR2 and C4.4A were developed in the Monoclonal Antibody Core of UT MDACC using unconjugated antigenic peptides. Several hybridoma colonies (2400 for each antibody) were screened for target recognition by ELISA using KLH-conjugated peptides. […]

Row | Molecule | increase in migration [1] [fold] | increase in migration [2] [fold] | reduction of Gem induced apoptosis [3] [%] | increase in proliferation [4] [fold] | increase in proliferation [5] [fold] | reduction of the effect of Gem (apoptosis) ([6]; AsPC-1, simultaneous rAGR2 with 5 μM Gem) [%] | increased invasion [7] [fold] | increased proliferation [8] [fold] | increase in invasion [9] [fold] | increase in invasion [10] [fold] | increased migration [11] [fold] | Median survival ([12]; 15 mg/kg twice a week i.p.) [weeks] | mice surviving ([12]; at nine weeks (seven weeks of treatment), when all control Ab mice had died, 15 mg/kg twice a week i.p.) [%] | mice with complete tumor regression ([12]; bioluminescence imaging, confirmed by surgical examination) | reduction of tumor volume ([12]; compared to control Ab, bioluminescence) [%] | mice surviving after week 63 ([12]; treatment stopped after 15 weeks, no evidence of tumor) | AGR2-mediated survival effects (Gem-induced apoptosis) ([6]; AsPC-1, Gem, rAGR2 100 nM, Abs 1 μM) | Median survival times [13] [weeks] | basal and AGR2-mediated stimulation in migration [14]
1 | B1 | 3 | 7 | 50 | 4 | 3 | > 50 | 3 | 3 | 3 | 10 | 10 |  |  |  |  |  |  |  | 
2 | B2 |  |  |  |  |  |  |  |  |  |  |  | 10 | 57 | 3/7 | 50 | one | abolished | 12 | abolished
